Substrate: Nc1nc2c(ncn2[C@H]2C[C@H](O)[C@@H](COP(=O)(O)OP(=O)(O)OP(=O)(O)O)O2)c(=O)[nH]1
Experiment: purified protein
Format: biochemical, Thermococcus kodakarensis
Settings: matched primer-template C-G (prothrombin factor II), Tris-HCl pH 8, 1.5 mM MgCl2, temperature not stated for kinetics (55 °C in primer extension assay)

Protein	Km [µM]	kcat [s⁻¹]	kcat/Km [M⁻¹ s⁻¹]
KOD pol wildtype (3'-5'-exonuclease deficient Thermococcus kodakaraensis DNA polymerase) (Thermococcus kodakarensis KOD1; D141A/E143A) (protein, mature intein-free polymerase expected (precursor holds two inteins); pET21a, E. coli BL21(DE3), Ni resin) chain 1: MILDTDYITEDGKPVIRIFKKENGEFKIEYDRTFEPYFYALLKDDSAIEEVKKITAERHGTVVTVKRVEKVQKKFLGRPVEVWKLYFTHPQDVPAIRDKIREHPAVIDIYEYDIPFAKRYLIDKGLVPMEGDEELKMLAFAIATLYHEGEEFAEGPILMISYADEEGARVITWKNVDLPYVDVVSTEREMIKRFLRVVKEKDPDVLITYNGDNFDFAYLKKRCEKLGINFALGRDGSEPKIQRMGDRFAVEVKGRIHFDLYPVIRRTINLPTYTLEAVYEAVFGQPKEKVYAEEITTAWETGENLERVARYSMEDAKVTYELGKEFLPMEAQLSRLIGQSLWDVSRSSTGNLVEWFLLRKAYERNELAPNKPDEKELARRRQSYEGGYVKEPERGLWENIVYLDFR chain 2: SLYPSIIITHNVSPDTLNREGCKEYDVAPQVGHRFCKDFPGFIPSLLGDLLEERQKIKKKMKATIDPIERKLLDYRQRAIKILAN chain 3: SYYGYYGYARARWYCKECAESVTAWGREYITMTIKEIEEKYGFKVIYSDTDGFFATIPGADAETVKKKAMEFLKYINAKLPGALELEYEGFYKRGFFVTKKKYAVIDEEGKITTRGLEIVRRDWSEIAKETQARVLEALLKDGDVEKAVRIVKEVTEKLSKYEVPPEKLVIHEQITRDLKDYKATGPHVAVAKRLAARGVKIRPGTVISYIVLKGSGRIGDRAIPFDEFDPTKHKYDAEYYIENQVLPAVERILRAFGYRKEDLRYQKTRQVGLSAWLKPKGT	0.168 ± 0.04	0.81 ± 0.12	4.8e+06 ± 1.9e+06
KOD pol wildtype (3'-5'-exonuclease deficient Thermococcus kodakaraensis DNA polymerase) (Thermococcus kodakarensis KOD1; D141A/E143A/R1398C) (protein, mature intein-free polymerase expected (precursor holds two inteins); pET21a, E. coli BL21(DE3), Ni resin) chain 1: MILDTDYITEDGKPVIRIFKKENGEFKIEYDRTFEPYFYALLKDDSAIEEVKKITAERHGTVVTVKRVEKVQKKFLGRPVEVWKLYFTHPQDVPAIRDKIREHPAVIDIYEYDIPFAKRYLIDKGLVPMEGDEELKMLAFAIATLYHEGEEFAEGPILMISYADEEGARVITWKNVDLPYVDVVSTEREMIKRFLRVVKEKDPDVLITYNGDNFDFAYLKKRCEKLGINFALGRDGSEPKIQRMGDRFAVEVKGRIHFDLYPVIRRTINLPTYTLEAVYEAVFGQPKEKVYAEEITTAWETGENLERVARYSMEDAKVTYELGKEFLPMEAQLSRLIGQSLWDVSRSSTGNLVEWFLLRKAYERNELAPNKPDEKELARRRQSYEGGYVKEPERGLWENIVYLDFR chain 2: SLYPSIIITHNVSPDTLNREGCKEYDVAPQVGHRFCKDFPGFIPSLLGDLLEERQKIKKKMKATIDPIERKLLDYRQRAIKILAN chain 3: SYYGYYGYACARWYCKECAESVTAWGREYITMTIKEIEEKYGFKVIYSDTDGFFATIPGADAETVKKKAMEFLKYINAKLPGALELEYEGFYKRGFFVTKKKYAVIDEEGKITTRGLEIVRRDWSEIAKETQARVLEALLKDGDVEKAVRIVKEVTEKLSKYEVPPEKLVIHEQITRDLKDYKATGPHVAVAKRLAARGVKIRPGTVISYIVLKGSGRIGDRAIPFDEFDPTKHKYDAEYYIENQVLPAVERILRAFGYRKEDLRYQKTRQVGLSAWLKPKGT	96 ± 21	8.3 ± 0.6	90000 ± 20000
